Percent of input retained on the beads data for 1 molecule are collected here from PMC29063.

This experiment has as its target GST-p35-C/EBPβ. Put plainly: pull-down.

B1: Elk-1 (wild type), in vitro translated (natural protein)
chain: MDPSVTLWQFLLQLLREQGNGHIISWTSRDGGEFKLVDAEEVARLWGLRKNKTNMNYDKLSRALRYYYDKNIIRKVSGQKFVYKFVSYPEVAGCSTEDCPPQPEVSVTSTMPNVAPAAIHAAPGDTVSGKPGTPKGAGMAGPGGLARSSRNEYMRSGLYSTFTIQSLQPQPPPHPRPAVVLPSAAPAGAAAPPSGSRSTSPSPLEACLEAEEAGLPLQVILTPPEAPNLKSEELNVEPGLGRALPPEVKVEGPKEELEVAGERGFVPETTKAEPEVPPQEGVPARLPAVVMDTAGQAGGHAASSPEISQPQKGRKPRDLELPLSPSLLGGPGPERTPGSGSGSGLQAPGPALTPSLLPTHTLTPVLLTPSSLPPSIHFWSTLSPIAPRSPAKLSFQFPSSGSAQVHIPSISVDGLSTPVVLSPGPQKP
modifications: labeled with [35S] methionine
B1 showed a percent of input retained on the beads of 35 to 45%.
